Measurements from article PMC12354141.

Each substance was assayed against human neonatal Fc receptor (FcRn), His-tagged (human) (UniProt P55899) (assay: BLI).

Row | Kd | Substance
1 | 17.2 to 30.1 nM | RGB-14-P (Gedeon Richter's proposed denosumab biosimilar to Prolia^®) (antibody)
2 | 17.7 to 38.5 nM | EU Prolia^® (denosumab reference drug product, EU-licensed) (antibody)
3 | 14.7 to 36.2 nM | EU Xgeva^® (denosumab reference drug product, EU-licensed) (antibody)
4 | 18.1 to 33.5 nM | US Xgeva^® (denosumab reference drug product, US-licensed) (antibody)
5 | 21.6 to 27.2 nM | RGB-14-X (Gedeon Richter's proposed denosumab biosimilar to Xgeva^®) (antibody)
6 | 19.7 to 29.2 nM | US Prolia^® (denosumab reference drug product, US-licensed) (antibody)

What follows are substances tested against FcγRIIIa/CD16a 158V, His-tagged (human) (assay: BLI).
Chain of FcγRIIIa/CD16a 158V, His-tagged (human) (P08637 17-208): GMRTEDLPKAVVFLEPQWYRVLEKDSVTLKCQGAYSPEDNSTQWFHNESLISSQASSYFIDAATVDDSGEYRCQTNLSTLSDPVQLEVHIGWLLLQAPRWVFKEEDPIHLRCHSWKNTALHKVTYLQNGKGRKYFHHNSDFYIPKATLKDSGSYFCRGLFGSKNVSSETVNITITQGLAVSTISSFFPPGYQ

Row | Kd | Substance
7 | 15 µM | denosumab (as such; mean over the products) (antibody)
